Laboratory results: patent US20050009749A1

Biological target: β amyloid (Aβ) 1-40 peptide
Assay: cell-based or functional assay

β amyloid (Aβ) 1-40 peptide, sequence (peptide, as listed by the source): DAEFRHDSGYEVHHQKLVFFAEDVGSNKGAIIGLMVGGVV

inhibition of Aβ aggregation, Congo red assay [% inhibition] | inhibition of Aβ aggregation, thioflavin-T fluorescence assay [% inhibition] | Substance | protection of SHSY-5Y neuronal cells from Aβ-induced death, MTT assay (% more surviving cells than control)
93.2 | 97 | AABA protein (β amyloid aggregation blocking activity protein) from Streptomyces sp. KK565 | 
 |  | AABA protein (β amyloid aggregation blocking activity protein) from Streptomyces sp. KK565 (enzyme) | 20
